# Changes are numbered by the printed parent chain. Names may count otherwise. “Also recorded” adds a separate entry of the source. Read-outs that look alike come from different tables or passages of the source.
# B1: XPA67-80 peptide (peptide)
# peptide: KIIDTGGGFILEEE
# notes: Synthetic peptide made by solid phase methods, residues 67-80 of XPA; also called XPA peptide; synthetic XPA fragment
# B2: XPA67-80^F75A mutant peptide (peptide)
# peptide: KIIDTGGGAILEEE
# notes: Synthetic peptide, alanine substitution at Phe75 of XPA67-80
# B3: XPA59-93 (peptide)
# peptide: MANVKAAPKIIDTGGGFILEEEEEEEQKIGKVVHQ
# notes: Expressed in E. coli from pET19bpps; The N-terminal (His)10 tag was cleaved with Prescission protease; 15N-labeled in some NMR experiments; also called XPA59-93 peptide; XPA59-93 fragment
# B4: ERCC192-214 (central domain of ERCC1, N-terminal His6 tag) (other)
# chain: MGSSHHHHHHSQDPLKPGAKSNSIIVSPRQRGNPVLKFVRNVPWEFGDVIPDYVLGQSTCALFLSLRYHNLHPDYIHGRLQSLGKNFALRVLLVQVDVKDPQQALKELAKMCILADCTLILAWSPEEAGRYLETYKA
# notes: 15N-labeled (and perdeuterated) in some NMR experiments
# B5: ERCC1-N110A/Y145A: mutant ERCC1 protein with N110A/Y145A double mutation (protein)
# chain: MDPGKDKEGVPQPSGPPARKKFVIPLDEDEVPPGVAKPLFRSTQSLPTVDTSAQAAPQTYAEYAISQPLEGAGATCPTGSEPLAGETPNQALKPGAKSNSIIVSPRQRGAPVLKFVRNVPWEFGDVIPDYVLGQSTCALFLSLRAHNLHPDYIHGRLQSLGKNFALRVLLVQVDVKDPQQALKELAKMCILADCTLILAWSPEEAGRYLETYKAYEQKPADLLMEKLEQDFVSRVTECLTTVKSVNKTDSQTLLTTFGSLEQLIAASREDLALCPGLGPQKARRLFDVLHEPFLKVP
# modifications: left off: small tags and cut ends
# notes: mutant ERCC1 protein with N110A/Y145A double mutation
# Assays:
# [1] = molecular target: XPA (endogenous, in UV20 Chinese Hamster Ovary cells); assay: cell-based or functional assay
# [2] = molecular target: T1, ERCC1-XPF (Homo sapiens, UniProt P07992); assay: Nuclease assay: incision of stem-loop DNA substrate by purified ERCC1-XPF; format: biochemical; conditions: 92 μM peptide, 0.4 mM MnCl2
# T1 sequence (P07992 1-297): B5 chain with A110N, A145Y
# T1 sequence (Q92889 1-916 partner): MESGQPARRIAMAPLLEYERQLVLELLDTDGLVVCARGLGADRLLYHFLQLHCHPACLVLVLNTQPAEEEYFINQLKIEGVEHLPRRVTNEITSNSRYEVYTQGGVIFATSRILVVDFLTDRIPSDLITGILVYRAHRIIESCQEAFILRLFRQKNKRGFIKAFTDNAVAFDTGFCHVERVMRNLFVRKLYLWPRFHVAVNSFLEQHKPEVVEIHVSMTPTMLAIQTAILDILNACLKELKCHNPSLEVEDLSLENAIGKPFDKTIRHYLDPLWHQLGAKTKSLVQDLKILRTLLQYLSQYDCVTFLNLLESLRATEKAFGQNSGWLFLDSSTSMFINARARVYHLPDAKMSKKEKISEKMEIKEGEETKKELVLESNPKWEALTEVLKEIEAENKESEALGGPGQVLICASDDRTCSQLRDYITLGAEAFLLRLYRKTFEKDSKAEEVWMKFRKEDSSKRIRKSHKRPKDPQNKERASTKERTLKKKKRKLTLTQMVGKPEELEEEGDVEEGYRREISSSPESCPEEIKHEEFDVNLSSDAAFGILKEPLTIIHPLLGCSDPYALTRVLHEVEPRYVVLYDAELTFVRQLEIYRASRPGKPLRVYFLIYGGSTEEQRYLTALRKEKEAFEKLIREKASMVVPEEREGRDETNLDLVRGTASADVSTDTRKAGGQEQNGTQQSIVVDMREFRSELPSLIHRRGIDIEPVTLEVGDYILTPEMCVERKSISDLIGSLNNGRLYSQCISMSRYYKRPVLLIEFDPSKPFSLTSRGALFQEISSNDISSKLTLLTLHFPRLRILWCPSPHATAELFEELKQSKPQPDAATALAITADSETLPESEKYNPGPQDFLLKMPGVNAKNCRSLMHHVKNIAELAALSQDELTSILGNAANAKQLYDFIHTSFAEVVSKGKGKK
# Protocol: Nuclease assay. A substrate consisting of a 12 base pair stem with a 22 nucleotide loop (5′-[…](T)22[…]; SEQ ID NO:7) was 5′ end labeled using a T4 polynucleotide kinase and [γ-^32P]-ATP. […] The final reaction volume was 15 μl.
# [3] = molecular target: T2, ERCC192-214 (Homo sapiens, UniProt P07992); assay: 15N HSQC NMR chemical shift perturbation of 15N-labeled ERCC1; format: binding; conditions: 15N HSQC
# T2 construct: an ERCC1 central domain fragment consisting of amino acids 92-214 preceded by an N-terminal hexahistidine tag; made in house; host or cells: E. coli BL21(DE3), M9 minimal media with 15N-labeled NH4Cl
# T2 sequence (P07992 92-214): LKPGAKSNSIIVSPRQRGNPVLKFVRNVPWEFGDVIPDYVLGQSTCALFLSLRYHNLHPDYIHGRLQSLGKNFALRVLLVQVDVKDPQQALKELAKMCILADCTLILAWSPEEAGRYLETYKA
# Protocol: FIG. 3 illustrates the binding of XPA67-80 in a shallow groove of ERCC1. (A) A comparison of the two dimensional HSQC spectra for ^15N-labeled ERCC192-214 in the presence and absence of an unlabeled XPA67-80 peptide. The ^15N HSQC spectra reveal significant chemical shift changes for some ERCC1 residues (labeled) in the absence or presence of unlabeled XPA67-80. (B) Combined average chemical shift perturbations are calculated as Δχave=[((Δχ1H)^2+(Δχ15N/5)^2)/2)]^1/2 for each backbone amide of ERCC1 and shown as a histogram.
# NMR experiments and determination of the structure of XPA-ERCC1 complex. All NMR data were acquired in the NMR Buffer described above. […] Backbone assignments of the free ERCC192-214 and ERCC1-XPA67-80 complex were performed using a standard set of triple-resonance experiments: HNCA/HN(CO)CA, HN(CA)CB/HN(COCA)CB and HNCO/HN(CA)CO.
# Identification of the ERCC1 binding site in complex with XPA. The binding site for XPA on the surface of ERCC1 (FIG. 2B) was identified using two dimensional HSQC experiments. […] The ^15N HSQC spectrum of the ERCC1-XPA complex is consistent with a slow-exchange regime, implying a dissociation equilibrium constant below 1 μM for the complex. The XPA binding site on the ERCC1 central domain was identified using the backbone assignments for […] alone and in complex with XPA (see below). […]
# [4] = system: NER activity in HeLa cell extracts; assay: In vitro NER assay: excision of a 1,3-intrastrand cisplatin adduct from plasmid in HeLa cell extract with XPA peptide; format: biochemical; conditions: HeLa cell free extract, plasmid with 1,3-cisplatin intrastrand crosslink, peptide 46 nM to 92 μM
# [5] = system: UV20 cells; assay: Recruitment of ERCC1 and XPA to local UV damage foci (irradiation through polycarbonate filters, immunofluorescence); format: cell-based, Chinese Hamster; conditions: UV-irradiated UV20 cells, 5 μM pore filters
# Protocol: The interaction of ERCC1 and XPA was investigated in living cells as follows (Volker et al., 2001, Gillet and Schärer, 2006): Cells were irradiated with UV irradiation through polycarbonate filters that are only translucent to UV light through their […]. This allows for the formation of spatially defined subnuclear region UV damage that can be detected as defined foci in fixed cells by antibodies against UV lesions in DNA as well as with antibodies against NER proteins recruited to these sites during the repair process.
# [6] = system: NER activity in XPF-deficient cell extracts; assay: In vitro NER assay in XPF-deficient cell extract supplemented with wild-type or mutant ERCC1-XPF; format: biochemical; conditions: cisplatin crosslink plasmid
# Excerpt: Mutations in the XPA binding pocket of ERCC1 abolish NER in vitro. […] Mutant ERCC1 proteins were generated containing N110A or Y145A single mutations or a N110A/Y145A double mutation, and their activities compared to that of the wild-type ERCC1 protein.
# [7] = system: UV20 Chinese Hamster Ovary cells; assay: Restoration of UV resistance in ERCC1-deficient UV20 cells by lentivirally expressed ERCC1; format: cell-based
# Protocol: Mutations in the XPA binding pocket of ERCC1 abolish NER in living cells. The ERCC1-N110A/Y145A double mutant protein was tested for its ability to interact with XPA and support NER activity in living cells. The double mutant and wild-type ERCC1 proteins were introduced into ERCC1-deficient UV20 Chinese Hamster Ovary cells using a lentiviral expression system. Proper expression of the ERCC1 proteins was detected using immunofluorescent detection using an antibody against the HA tag present on the lentivirally expressed ERCC1 protein. Two main parameters were compared for the wild-type and mutant proteins. Global NER activity was assessed by measuring the ability of the wild-type and double mutant ERCC1 proteins to restore UV resistance in UV-20 cells.
# [8] = molecular target: B4; assay: 15N HSQC of the ERCC1-XPA complex, slow-exchange regime
# [9] = molecular target: T3, ERCC196-214 (central domain of ERCC1, N-terminal His6 tag) (Homo sapiens (Human), UniProt P07992 96-214); assay: competition with 6FAM-labeled single-stranded 40mer DNA for ERCC1, fluorescence anisotropy, fit to a competitive binding model (Eq. 9)
# T3 construct: not shown: N-terminal His6 tag
# T3 sequence: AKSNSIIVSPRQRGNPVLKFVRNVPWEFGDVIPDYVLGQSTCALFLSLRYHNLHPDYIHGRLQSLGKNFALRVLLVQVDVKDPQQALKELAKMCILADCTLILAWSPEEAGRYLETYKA
# [10] = molecular target: T3, ERCC196-214 (central domain of ERCC1, …); assay: competition titration, fluorescence anisotropy; reference is DNA binding to the ERCC1 central domain (1.5 µM)
# [11] = molecular target: B4; assay: competition with 6FAM-labeled single-stranded 40mer DNA for ERCC1, fluorescence polarization, best fit to Eq. 9 (legend of FIG. 7)
# [12] = molecular target: B4; assay: 15N HSQC of 15N-labeled ERCC1 with added mutant peptide (data not shown)
# [13] = molecular target: B4; assay: sedimentation equilibrium analytical ultracentrifugation
# [14] = molecular target: T4, XPA59-273 (Homo sapiens (Human), UniProt P23025 59-273); assay: gel filtration (S100) of the complex; ERCC1 central domain construct (92-214 or 96-214) not specified
# T4 construct: Cloned into pET19bpps; His10 tag cleaved with Prescission protease
# [15] = molecular target: T5, XPA1-273 (Homo sapiens (Human), UniProt P23025 1-273); assay: as above
# T5 construct: Cloned into pET19bpps; His10 tag cleaved with Prescission protease; also called full length XPA protein
# T5 sequence (P23025 whole entry): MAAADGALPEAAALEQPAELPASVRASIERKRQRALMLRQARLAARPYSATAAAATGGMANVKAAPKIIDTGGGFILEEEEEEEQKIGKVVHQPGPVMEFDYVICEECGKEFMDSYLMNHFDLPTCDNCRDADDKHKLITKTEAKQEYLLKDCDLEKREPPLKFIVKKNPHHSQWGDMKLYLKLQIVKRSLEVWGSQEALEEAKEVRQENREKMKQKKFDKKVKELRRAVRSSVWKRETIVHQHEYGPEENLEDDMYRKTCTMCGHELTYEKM
molecule,measurement,setting,value
"ERCC1-N110A/Y145A double mutant protein with HA tag, lentivirally expressed in UV20 Chinese Hamster Ovary cells (from UniProt P07992 1-297)",UV resistance of UV20 cells,[1],< 50%
XPA67-80^F75A: mutant XPA67-80 peptide with alanine substitution at Phe75 (KIIDTGGGAILEEE),effect on intrinsic nuclease activity of ERCC1-XPF,[2],do not affect
same,binding to 15N-labeled ERCC1 by chemical shift perturbation,[3],does not bind to ERCC1
same,effect on NER excision of the lesion-containing oligonucleotide,[4],did not affect NER activity; also recorded: has no effect
"wild-type ERCC1: wild-type ERCC1 protein, expressed as heterodimer with XPF in insect cells or lentivirally in UV20 cells",recruitment of ERCC1 to sites of nuclear UV damage,[5],colocalized at sites containing 6-4 photoproducts
same,NER activity restored by ERCC1 (heterodimer with XPF),[6],restored NER activity
same,restoration of UV resistance,"[7]; doses of 1, 2, 4 and 10 J/m^2",fully restored UV resistance
B1,Kd,[8],< 1000 nM
same,Kd,[9],540 nM
same,fold higher affinity than single stranded DNA,[10],~3 fold
same,Kd,[11],300 nM
B2,binding result,[12],no binding
B3,binding result,[13],binds
B4,binding result,[14],binds
same,binding result,[15],binds
B5,recruitment of ERCC1 to sites of nuclear UV damage,[5],not recruited to sites of active NER
same,NER activity restored by ERCC1 (heterodimer with XPF),[6],only marginal NER activity
same,restoration of UV resistance,[7],less than 50%

# From patent publication US20100331233A1, “CRYSTAL OF XPA AND ERCC1 COMPLEX AND USES THEREOF” (priority 2007, published 2010)
